The record followed here is patent US20150064731A1 (PROMEGA, published 2015).

This data set concerns the molecule itself. The data set can be described thus: gel filtration chromatography (Superdex 200 5/150 GL) of the purified protein; self-association. The source says: Gel filtration analysis was used to verify the expected molecular weight of the purified OgLuc proteins based on the theoretical values and consequently to determine their oligomeric state. A comparison between the relative hydrodynamic volume of the OgLuc variants C1+A4E and 9B8 was made by gel filtration chromatography. For this analysis, the nucleotide sequence for the OgLuc variants, C1+A4E and 9B8, were cloned into a HQ-Tagged Flexi® Vector (Promega Corp.) to create a HQHQHQ (SEQ ID NO: 580) N-terminally tagged protein that was overexpressed in E. coli KRX cells. The overexpressed proteins were purified using the HisLink™ Protein Purification System (Promega Corp.) according to manufacturer's instructions. Samples of each individual standard and sample protein were analyzed by gel filtration chromatography, which was performed at 24° C. on an Agilent 1200 HPLC, using a Superdex 200 5/150 GL column (GE Healthcare) with a flow rate of 0.25 mL/min (FIGS. 43A-B). The mobile phase (i.e., running buffer) consisted of 50 mM Tris and 150 mM NaCl, pH 7.5. Protein elution was monitored at 214 and 280 nm. A standard calibration curve was generated using: 1) Ovalbumin, 43 kDa (GE Healthcare), 2) Carbonic Anhydrase, 29 kDa (Sigma) and 3) Myoglobin, 17 kDa (Horse Heart, Sigma). The molecular weights of the purified proteins were calculated directly from the calibration curve.
Background: In gel filtration, larger molecules generally elute earlier.

B1: OgLuc variant 9B8, HQHQHQ N-terminally tagged (enzyme)
chain: HQHQHQFTLEDFVGDWRQTAGYNLDQVLEQGGLSSLFQKLGVSVTPIQKIVLSGENGLKIDIHVIIPYEGLSGYQMGQIEKIFKVVYPVDDHHFKVILHYGTLVIDGVTPNMIDYFGRPYEGIAVFDGKKITVTGTLWNGNKIIDERLINPDGSLLFRVTINGVTGWRLCERILA
notes: Overexpressed in E. coli KRX and purified with the HisLink Protein Purification System for gel filtration
B1: the binding result is “no binding”.
